{"source": "patent US20020016443A1", "about": "“Antiproliferative factor” (priority 1996, published 2002)", "molecules": {"B1": {"name": "heparin-binding epidermal growth factor-like growth factor (protein, UniProt Q99075 63-148, looked up)", "Heparin-binding EGF-like …": "DLQEADLDLLRVTLSSKPQALATPNKEEHGKRKKKGKGLGKKRDPCLRKYKDFCIHGECKYVKELRAPSCICHPGYHGERCHGLSL"}}, "system": "APF activity on primary normal bladder epithelial cells", "test": "Blocking of APF antiproliferative activity by recombinant growth factors (^3H-thymidine incorporation)", "assay_type": "cell-based, human", "method": "^3H-Thymidine Incorporation. Primary normal adult human bladder epithelial cells (HBE) were grown from biopsies obtained at autopsy from patients who had no history of bladder disorder. HBE cells were plated at a density of 1×10^4 cells/well onto 96 well tissue culture plates and incubated at 37° C. overnight (resulting in approximately 60% confluence the following day). The medium was then changed to MEM containing only 1% glutamine and 1% antibiotic/ antimycotic solution, and the cells were incubated at 37° C. overnight. […] Cells were then trypsinized, and insoluble cell contents harvested and methanol-fixed onto glass fiber filter paper, as previously described^62; the amount of radioactivity incorporated was determined as counts per minute using a Beckman LS 3801 scintillation counter. […]\nTo determine whether the antiproliferative effect of the APF on bladder epithelial cells might be due to a decrease in HB-EGF production, primary normal bladder epithelial cells were simultaneously incubated with varying levels of recombinant HB-EGF, EGF, or IGF1 and low molecular weight urine fractions from IC patients. […] This effect was evident using a concentration of HB-EGF (10 ng/ml) in the range previously determined for normal controls (2-22 ng/ml, mean 6.33 ng/ml) 12 as well as higher concentrations (30 and 100 ng/ml). […]", "data": [{"molecule": "B1", "values": [{"measurement": "inhibition of antiproliferative activity of HPLC-purified APF", "setting": "10 ng purified APF, 30 ng/ml of HB-EGF, normal and IC patient cells", "value": "inhibited for 2 of 3 APF specimens"}, {"measurement": "inhibition of IC urine antiproliferative activity by recombinant growth factor", "setting": "co-incubation with low molecular weight IC urine fractions, HB-EGF 10, 30 and 100 ng/ml, EGF, IGF1 up to about 12 and 25 fold normal levels", "value": "inhibited by HB-EGF in a dose-dependent manner"}]}]}
